Source: the DeepSol protein solubility set

Test: soluble on expression in E. coli; label from the status in PepcDB or PDB records

**Q.** Which “soluble on expression in E. coli” value does the source give for “MAHHHHHHMSSETPRASTHDVFCAALQMLGGAQIFAQPLIQRTAVASLSPRSRNGNQASAVIAESATSRDAGTNHLPDPGIDVDAKPVDKPCCRGEQPCERTGTAPVKAMVTLCDPPARCEGVLAAQNAQRRLHHLRFFGGRFFLADGVTASESQQTSGYASTATSNAHVSDDCSSTWELKASYFQAMKETLTAVMGRRLRSQLLCDDSTADTGTVLRAPVPRGATGASTMTTSARQAALRRRMEAFTSAVVHQESILDAVAAACRARLNTVGGATAAPTPCFFFSALPQISVRQWAGSHLYKHWLVRCGTPRASLPSTATNPQKSGPHGAPMLTSPSAPRAPATALVLPLDVEAELRKYWKLHDEAAARARLEALRCNDAQAFAEHVSLLKVSALLEIMEKTEGFMRRIGLRLQFHATQAAANRGGDGARAVPTTRAAPAALAEPGIADRPGGAAGCHGSEYERFRSYVASTKNEFKLMHRVDVFVAAQPAGLDATLLPHQMDGLRFLASLDANHINGILADEMGVGKTIQTLAFLLYLKNRRGETGETGEGSGGRVAPPRVGSRLPHLVLAPLSVVREWREACEQFVPSALHVAMYQELADPVHEAAAYDLVLLPVHAIRYVGAEAARIQWHYIVVDEAHKAVANLSTITAQRILRPLVFAPPGADWNAAQQRLAGALVAAALSESGGVHRQ” here?
**A.** not soluble

**Q.** For “DLTIDNGPEKGDLLVLGWGSTYGAIKKAVEQAREGGLDVAHAHLRYINPFPKNLGAMLGNFKKVLIPENNCGQLLSLIRDKFLIEPVGFSKVQGLPFNEMEIEEKITDILKEL”, which “soluble on expression in E. coli” value is on record?
**A.** not soluble

**Q.** Which “soluble on expression in E. coli” value does the source give for “MSDYQMFEVQVSQVEPLTEQVKRFTLVATDGKPLPAFTGGSHVIVQMSDGDNQYSNAYSLLSSPHDTSCYQIAVRLEENSRGGSRFLHQQVKVGDRLTISTPNNLFALIPSARKHLFIAGGIGITPFLSHMAELQHSDVDWQLHYCSRNPESCAFRDELVQHPQAEKVHLHHSSTGTRLELARLLADIEPGTHVYTCGPEALIEAVRSEAARLDIAADTLHFEQFAIEDKTGDAFTLVLARSGKEFVVPEEMTILQVIENNKAAKVECLCREGVCGTCETAILEGEADHRDQYFSDEERASQQSMLICSRAKGKRLVLDL” here?
**A.** soluble

**Q.** Which “soluble on expression in E. coli” value does the source give for “MTEAEDFAQLLQKLQNASPALPEGTSSTPTPSSSTGLLPNGKKTKGRVKIKMEYINNKLRRYTTFSKRKTGIMKKAFELSTLTGTQVMLLVASETGHVYTYATPKLQPMISSDTGKAMIQSCLNAPGGDGSDVQPSRTEFTFDSGNGGNGMRKRKMLSDVMSAESSNNSPSMPNFTPFLAPSMAPLFSTFGEDDYNNDESGDDSDSEEASSDIKEEYQGSPTMVKQETTEIDSVTASLQQRIKEAMRQAASNKQAIKKAKITPPSSNMNNAAFLNPFLLQGGANASNLLATAARKGDDAGSLTSNPFLSMGLNLQQLIESAAIASNE” here?
**A.** not soluble

**Q.** With “MDGYEEYTVLKEWEKTHKNEEIYSIRFGGNYMIDMKDGIKLSTDVYLPDFVDSAKKAPTILMRTPYGKENDKEIYYKYVQRGYAVVIQDVRGRNESEGKWEPMIHEREDGDSTINWIVSQEWSSGIVGMLGASYLGYVQWAAASSGNKHLKALVSIVTSGSPFIDIPRKGGAFVSGMLAWAFMVSRNKVDRSKMVRDDWDDVLNIRPIENIPVEALGYRIEFLEEWLKRVEKDEYWDLMDWHLQKDKINVPALVVSGWYDDNSMGTTEALDVIKDYEKGKRKAILGPWMHNSNTLRDINGISLGNSSLRYDLDYNYLLWFDKYLKGIENNIDTTAPVEYYSVGSNKWKTEE” as the sequence, how does the “soluble on expression in E. coli” value read?
**A.** not soluble

**Q.** For “MSAFTPASEVLLRHSDDFEQSRILFAGDLQDDLPARLDTAASRAHTQQFQHWQVLSRQMGDNARFSLVATADDVADCDTLIYYWPKNKPEAQFQLMNLLSLLPVGTDIFVVGENRSGVRSAEQMLADYAPLNKVDSARRCGLYFGRLEKQPVFDADKFWGEYSVDGLTVKTLPGVFSRDGLDVGSQLLLSTLTPHTKGKVLDVGCGAGVLSVAFARHSPKIRLTLCDVSAPAVEASRATLAANGVEGEVFASNVFSEVKGRFDMIISNPPFHDGMQTSLDAAQTLIRGAVRHLNSGGELRIVANAFLPYPDVLDETFGFHEVIAQTGRFKVYRAIMTRQAKKG”, which “soluble on expression in E. coli” value is on record?
**A.** not soluble

**Q.** Which “soluble on expression in E. coli” value does the source give for “GPGPSRPSASWQNSVSERPPYSYMAMIQFAINSTERKRMTLKDIYTWIEDHFPYFKHIAKPGWKNSIRHNLSLHDMFVRETSANGKVSFWTIHPSANRYLTLDQVFKPLDPGSPQLPEHLESQQKRPNPELRRNMTIKTELP” here?
**A.** soluble

**Q.** With “MANVYTAEATATGGRAGTTRSSDDRLNLDLSVPAEMGGDGGPGTNPEQLFAAGYAACFQGALGVVSRRNKIDVPADSTITARVGLQKAGLAFALDVELEGHFPGLSREQAEGLMHAAHEVCPYSAATRNNVDVRLKVRE” as the sequence, how does the “soluble on expression in E. coli” value read?
**A.** soluble

**Q.** Which “soluble on expression in E. coli” value does the source give for “MSDITLREAQKSVDQWIKTLGIRYFNELTNMAILTEEVGEVARIIARRYGEQSEKESDKSKDLADEMADVLWVLLCLANQTGVDLTTAFHKNIEKKTVRDKERHQQNTKLHNNGSK” here?
**A.** soluble

**Q.** Which “soluble on expression in E. coli” value does the source give for “ALAQKRDNVLFQAATDEQPAVIKTLEKLVNIETGTGDAEGIAAAGNFLEAELKNLGFTVTRSKSAGLVVGDNIVGKIKGRGGKNLLLMSHMDTVYLKGILAKAPFRVEGDKAYGPGIADDKGGNAVILHTLKLLKEYGVRDYGTITVLFNTDEEKGSFGSRDLIQEEAKLADYVLSFEPTSAGDEKLSLGTSGIAYVQVNITGKASHAGAAPELGVNALVEASDLVLRTMNIDDKAKNLRFNWTIAKAGNVSNIIPASATLNADVRYARNEDFDAAMKTLEERAQQKKLPEADVKVIVTRGRPAFNAGEGGKKLVDKAVAYYKEAGGTLGVEERTGGGTDAAYAALSGKPVIESLGLPGFGYHSDKAEYVDISAIPRRLYMAARLIMDLGAGK” here?
**A.** soluble

**Q.** For “PVKVVVGKTFDAIVMDPKKDVLIEFYAPWCGHCKQLEPIYTSLGKKYKGQKDLVIAKMDATANDITNDQYKVEGFPTIYFAPSGDKKNPIKFEGGNRDLEHLSKFIDEHATKRSRTKEEL”, which “soluble on expression in E. coli” value is on record?
**A.** soluble

**Q.** Which “soluble on expression in E. coli” value does the source give for “MSLKISLENVGCASQIGKRKENEDRFDFAQLTDEVLYFAVYDGHGGPAAADFCHTHMEKCIMDLLPKEKNLETLLTLAFLEIDKAFSSHARLSADATLLTSGTTATVALLRDGIELVVASVGDSRAILCRKGKPMKLTIDHTPERKDEKERIKKCGGFVAWNSLGQPHVNGRLAMTRSIGDLDLKTSGVIAEPETKRIKLHHADDSFLVLTTDGINFMVNSQEICDFVNQCHDPNEAAHAVTEQAIQYGTEDNSTAVVVPFGAWGKYKNSEINFSFSRSFASSGRWAEGHHHHHH” here?
**A.** soluble

**Q.** With “MKAYDIEIVNDAAHAGEANHGWCFGLPPGIRPEQWPLDPDTGYPLMHGFTLLLPEDYRVHGPEIVALSFFSLAPDQNDGGPTSVDGIREMLIDPPAQPPAEAELRPFWEAGRNSHPRLHRMEDILGGAYALILLDAAEFSGAPCQPRALPAGNPLLAQTEPPQWLEAGSAASFVPDWAEDDYYLLRALGGRPAAGHQQRYPLRWTARAQDPNAGVVPSEYGDGGYQLPHYWLDGKIERDNYREHPWVEGHLPNHIGGTMRPVQGVPEMSPFYVEFEEYLGGYNFGGGNAQLDFRDMRFDWACG” as the sequence, how does the “soluble on expression in E. coli” value read?
**A.** not soluble

**Q.** With “DPSVFSLPDSKLPGDKEFVPWQQDLDDSVKPTQQARPTVIRWSEGGKEVFISGSFNNWSTKIPLIKSHNDFVAILDLPEGEHQYKFFVDGQWVHDPSEPVVTSQLGTINNLIHVKKSDFEVFDALKLDSMESSETSCRV” as the sequence, how does the “soluble on expression in E. coli” value read?
**A.** not soluble

**Q.** For “MTPIPLINIPLCNLAGDGYILSEKSQSQNMLRGIVMSETVRVGLLGYGYASKTFHAPLIAGTAGMELVAVSSSNAEKVHADWANLRVEKDPQALFSDPDIDLIVIPTPNDTHFPLAKQALEAGKHVVVDKPFTVTLSQAYDLGAIAERAGKVLSVFHNRRWDSDFLTLKQLLSAGTLGNVVYMESHFDRFRPEVRQRWREDGSEGSGIWYDLGPHLLDQALELFGLPVAIQVDMAQLRPGSKATDYFHATLIYPQRRVILHASMLVAAASARYTVHGTRGSFVKYGLDPQEDRLKAGERPPLADWGQDKHDGVLTLSRDGITAEQTIATIPGNYPAYYAAVRDALLGKGENPVGVNQAIQVMELIELGLLSHEQKKAVALKNSLEHHHHHH”, which “soluble on expression in E. coli” value is on record?
**A.** not soluble
